Earlier results on two molecules are cited in patent publication US20100068187A1, “TRANSCRIPTION FACTORS FOR DIFFERENTIATION OF ADULT HUMAN OLFACTORY PROGENITOR CELLS” (priority 2006, published 2010).

For the series, the system named is Human NSFCs. Conditions: incubated in the presence of neurotrophic factor.

B1: GDNF: glial-derived neurotrophic factor (protein, UniProt P39905 78-211, looked up)
Glial cell line-derived …: SPDKQMAVLPRRERNRQAAAANPENSRGKGRRGQRGKNRGCVLTAIHLNVTDLGLGYETKEELIFRYCSGSCDAAETTYDKILKNLSRNRRLVSDKVGQACCRPIAFDDDLSFLDDNLVYHILRKHSAKRCGCI
With B1, the “neuronal differentiation of human NSFCs” value is listed as “refractory to neuronal differentiation”.

B2: BDNF: brain-derived neurotrophic factor (protein, UniProt P23560 19-247, looked up)
Neurotrophic factor BDNF …: APMKEANIRGQGGLAYPGVRTHGTLESVNGPKAGSRGLTSLADTFEHVIEELLDEDQKVRPNEENNKDADLYTSRVMLSSQVPLEPPLLFLLEEYKNYLDAANMSMRVRRHSDPARRGELSVCDSISEWVTAADKKTAVDMSGGTVTVLEKVPVSKGQLKQYFYETKCNPMGYTKEGCRGIDKRHWNSQCRTTQSYVRALTMDSKKRIGWRFIRIDTSCVCTLTIKRGR
In the case of B2, the “neuronal differentiation of human NSFCs” value was “refractory to neuronal differentiation”.
